Data: article PMC2761280
Like-named read-outs stand apart in the source and are kept apart here.

T1: POLGβ (his)10 (UniProt Q9UHN1 26-485)
T1 sequence: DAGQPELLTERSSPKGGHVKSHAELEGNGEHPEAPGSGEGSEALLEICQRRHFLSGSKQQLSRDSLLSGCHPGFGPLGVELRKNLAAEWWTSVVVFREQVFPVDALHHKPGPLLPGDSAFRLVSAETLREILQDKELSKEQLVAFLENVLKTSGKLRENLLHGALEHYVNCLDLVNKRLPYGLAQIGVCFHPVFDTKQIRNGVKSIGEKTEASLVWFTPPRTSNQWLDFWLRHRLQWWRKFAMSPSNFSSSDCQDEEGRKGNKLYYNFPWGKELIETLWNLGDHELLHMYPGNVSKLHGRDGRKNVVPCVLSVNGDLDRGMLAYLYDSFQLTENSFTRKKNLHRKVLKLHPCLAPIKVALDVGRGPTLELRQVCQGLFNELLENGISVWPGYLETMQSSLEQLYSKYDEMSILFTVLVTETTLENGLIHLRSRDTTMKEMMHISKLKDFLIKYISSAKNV

B1: oligonucleotide C (free ss oligo) (ssDNA)
DNA: ACCGCTATGTATTTCGTACATTACTGCCAGCCACCATGAATATTGTACGGTACCATAAATACTTGACCACCTGTAGTACATAAAAACCCAATCCACATCAAAACCCCCTCCCCATGCTTA

Tests used:
Assay in all cases: EMSA
POLGβ (his)10 [1] = target: T1, POLGβ (his)10
POLGα [2] = target: T2, POLGα (UniProt P54098 26-1239)
POLGα [3] = target: T2, POLGα; remark: listed apart in the source
POLGβ (his)10 [4] = target: T1, POLGβ (his)10; remark: listed apart in the source

T2 sequence (P54098 26-1239): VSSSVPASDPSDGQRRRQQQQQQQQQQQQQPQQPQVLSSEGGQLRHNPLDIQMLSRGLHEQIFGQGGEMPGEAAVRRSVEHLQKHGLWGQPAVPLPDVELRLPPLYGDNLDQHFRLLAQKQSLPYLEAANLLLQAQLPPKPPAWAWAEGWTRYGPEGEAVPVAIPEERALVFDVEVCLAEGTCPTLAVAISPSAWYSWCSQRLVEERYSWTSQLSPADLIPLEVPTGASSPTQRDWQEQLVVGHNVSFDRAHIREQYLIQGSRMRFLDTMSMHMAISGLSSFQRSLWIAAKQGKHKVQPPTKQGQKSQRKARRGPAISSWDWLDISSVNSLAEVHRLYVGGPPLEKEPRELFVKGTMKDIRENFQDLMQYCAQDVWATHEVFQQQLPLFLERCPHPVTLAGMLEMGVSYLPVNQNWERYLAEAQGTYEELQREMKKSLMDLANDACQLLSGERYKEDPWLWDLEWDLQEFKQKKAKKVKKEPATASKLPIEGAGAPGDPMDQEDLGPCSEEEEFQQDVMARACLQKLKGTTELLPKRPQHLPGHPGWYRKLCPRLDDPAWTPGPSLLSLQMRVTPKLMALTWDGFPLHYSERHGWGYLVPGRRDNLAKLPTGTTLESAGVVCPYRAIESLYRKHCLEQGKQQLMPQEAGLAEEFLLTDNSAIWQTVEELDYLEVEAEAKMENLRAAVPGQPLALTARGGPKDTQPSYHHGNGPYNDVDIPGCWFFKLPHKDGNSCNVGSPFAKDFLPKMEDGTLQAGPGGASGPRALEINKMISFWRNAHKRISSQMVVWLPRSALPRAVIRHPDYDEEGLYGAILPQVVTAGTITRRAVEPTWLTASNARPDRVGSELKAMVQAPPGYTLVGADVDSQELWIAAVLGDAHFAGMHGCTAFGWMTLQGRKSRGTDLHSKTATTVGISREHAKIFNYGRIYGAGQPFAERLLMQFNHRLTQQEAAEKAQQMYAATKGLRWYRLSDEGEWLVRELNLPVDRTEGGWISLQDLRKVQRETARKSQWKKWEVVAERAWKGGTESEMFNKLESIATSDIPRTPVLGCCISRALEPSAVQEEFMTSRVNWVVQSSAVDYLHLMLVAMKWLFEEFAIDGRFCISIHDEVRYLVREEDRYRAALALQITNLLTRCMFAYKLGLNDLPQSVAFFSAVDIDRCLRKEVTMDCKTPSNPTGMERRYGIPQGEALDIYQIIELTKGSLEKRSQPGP

| Binder | binding result (POLGβ (his)10 [1]) | Kd (POLGα [2]) | binding result (POLGα [3]) | binding result (POLGβ (his)10 [4]) |
| --- | --- | --- | --- | --- |
| CCGGTCGTACGGAAAACCTGTATTTTCAGGGCT (ssDNA) [33-mer ss oligonucleotide] | no binding | 92 nM |  |  |
| B1 |  |  | binds | no binding |
